This note sets out measurements from US20260167721A1 (ABLEXIS, published 2026).

Assay in all cases: cell-based or functional assay
Test [1] addresses T1, human CD3 (on human Pan-T cells or donor PBMC) (human, UniProt P07766 23-207; P04234 22-171; P09693 23-182; P20963 22-164).
The target in test [2] is T1, human CD3 (on human Pan-T cells or …). This is another data set of the same source.
Test [3] deals with T2, CD3 on human donor PBMC / Pan T effector cells (human, UniProt P07766 23-207; P09693 23-182; P04234 22-171; P20963 22-164).
In test [4] the target is T2, CD3 on human donor PBMC / Pan T …. This is another data set of the same source.

T1 sequence (P07766 23-207, chain 1 of 4): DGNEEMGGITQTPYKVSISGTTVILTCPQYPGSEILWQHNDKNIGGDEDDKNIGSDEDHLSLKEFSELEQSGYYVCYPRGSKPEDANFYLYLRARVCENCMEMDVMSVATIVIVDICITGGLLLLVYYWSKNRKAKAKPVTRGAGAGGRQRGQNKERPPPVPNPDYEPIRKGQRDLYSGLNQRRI
T1 sequence (P04234 22-171, chain 2 of 4): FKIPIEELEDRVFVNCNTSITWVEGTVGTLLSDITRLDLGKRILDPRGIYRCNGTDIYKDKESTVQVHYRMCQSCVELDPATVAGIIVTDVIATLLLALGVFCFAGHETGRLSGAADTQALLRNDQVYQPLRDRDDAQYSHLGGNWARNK
T1 sequence (P09693 23-182, chain 3 of 4): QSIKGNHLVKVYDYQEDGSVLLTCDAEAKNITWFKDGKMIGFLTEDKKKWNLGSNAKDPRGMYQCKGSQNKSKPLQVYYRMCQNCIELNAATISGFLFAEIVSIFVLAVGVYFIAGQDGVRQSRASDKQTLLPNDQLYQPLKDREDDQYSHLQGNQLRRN
T1 sequence (P20963 22-164, chain 4 of 4): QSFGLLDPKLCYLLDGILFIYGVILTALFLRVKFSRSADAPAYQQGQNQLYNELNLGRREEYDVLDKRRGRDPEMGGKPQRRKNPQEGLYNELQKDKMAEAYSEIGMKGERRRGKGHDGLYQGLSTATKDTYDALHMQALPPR
T2 sequence (P07766 23-207, chain 1 of 4): as the sequence (P07766 23-207, chain 1 of 4) above
T2 sequence (P09693 23-182, chain 2 of 4): as the sequence (P09693 23-182, chain 3 of 4) above
T2 sequence (P04234 22-171, chain 3 of 4): as the sequence (P04234 22-171, chain 2 of 4) above
T2 sequence (P20963 22-164, chain 4 of 4): as the sequence (P20963 22-164, chain 4 of 4) above

B1: CD3 × CD33-BspAb85 (bispecific antibody)
chain 1: EVQLVESGGGLVKPGGSLRLSCAASGFTFSSYSMNWVRQAPGKCLEWVSSISRSSGYIFYADSVKGRFTISRDNAKNSLYLQMNSLRAEDTAVYYCVRERVGAGFDYWGQGTLVTVSSGGGGSGGGGSGGGGSGGGGSNFMLTQPHSVSESPGKTVAISCTRSSGSIASNYVQWYQQRPGSSPTAVIYEDNQRPSGVPDRFSGSIDSSSNSAFLTISGLKTEDEADYYCQSYDSSNRVFGCGTKLTVLDKTHTCPPCPAPEFEGGPSVFLFPPKPKDTLMISRTPEVTCVVVDVSHEDPEVKFNWYVDGVEVHNAKTKPREEQYNSTYRVVSVLTVLHQDWLNGKEYKCKVSNKALPASIEKTISKAKGQPREPQVYTLPPCREEMTKNQVSLWCLVKGFYPSDIAVEWESNGQPENNYKTTPPVLDSDGSFFLYSKLTVDKSRWQQGNVFSCSVMHEALHNHYTQKSLSLSPGK
chain 2: EVQLVQSGAEVKKPGSSVKVSCKASGYTITDSNIHWVRQAPGQSLEWIGYIYPYNGGTDYNQKFKNRATLTVDNPTNTAYMELSSLRSEDTAFYYCVNGNPWLAYWGQGTLVTVSSASTKGPSVFPLAPSSKSTSGGTAALGCLVKDYFPEPVTVSWNSGALTSGVHTFPAVLQSSGLYSLSSVVTVPSSSLGTQTYICNVNHKPSNTKVDKRVEPKSCDKTHTCPPCPAPEFEGGPSVFLFPPKPKDTLMISRTPEVTCVVVDVSHEDPEVKFNWYVDGVEVHNAKTKPREEQYNSTYRVVSVLTVLHQDWLNGKEYKCKVSNKALPASIEKTISKAKGQPREPQVCTLPPSREEMTKNQVSLSCAVKGFYPSDIAVEWESNGQPENNYKTTPPVLDSDGSFFLVSKLTVDKSRWQQGNVFSCSVMHEALHNRFTQKSLSLSPGK
chain 3: DIQLTQSPSTLSASVGDRVTITCRASESLDNYGIRFLTWFQQKPGKAPKLLMYAASNQGSGVPSRFSGSGSGTEFTLTISSLQPDDFATYYCQQTKEVPWSFGQGTKVEVKRTVAAPSVFIFPPSDEQLKSGTASVVCLLNNFYPREAKVQWKVDNALQSGNSQESVTEQDSKDSTYSLSSTLTLSKADYEKHKVYACEVTHQGLSSPVTKSFNRGEC
On to B1, for which, in test [1], the “RTCC Assay, Donor 0, EC50” value came to 0.102 nM; the “RTCC Assay, Donor 0, gMFI max” value stood at 29900 gMFI; the “RTCC Assay, Donor 1, EC50” value turned out to be 0.006 nM; the “RTCC Assay, Donor 1, gMFI max” value came to 78200 gMFI. In test [1], the “RTCC Assay, Donor 2, EC50” value was 0.028 nM; the “RTCC Assay, Donor 2, gMFI max” value is 64200 gMFI; the “RTCC Assay, Donor 3, EC50” value amounted to 0.045 nM; the “RTCC Assay, Donor 3, gMFI max” value was 85600 gMFI. For the same molecule, in test [2], the “Cytokine Release Assay (IFNγ), Donor 0, EC50” value was 0.0832 nM; the “Cytokine Release Assay (IFNγ), Donor 0, gMFI max” value stood at 983000 gMFI; the “Cytokine Release Assay (IFNγ), Donor 1, gMFI max” value was 8040 gMFI; the “Cytokine Release Assay (IFNγ), Donor 2, EC50” value was 0.0468 nM. Further, in test [2], the “Cytokine Release Assay (IFNγ), Donor 2, gMFI max” value came to 31400 gMFI and the “Cytokine Release Assay (IFNγ), Donor 3, gMFI max” value was determined as 104000 gMFI.

B2: High affinity Control (Control Humanized anti-CD3 (high affinity) scFv-Fc knob/TM x gemtuzumab) (bispecific antibody)
chain: EVQLVESGGGLVQPGGSLRLSCAASGFTFSTYAMNWVRQAPGKGLEWVGRIRSKYNNYATYYADSVKGRFTISRDDSKNTLYLQMNSLRAEDTAVYYCVRHGNFGDSYVSWFAYWGQGTLVTVSSGKPGSGKPGSGKPGSGKPGSQAVVTQEPSLTVSPGGTVTLTCGSSTGAVTTSNYANWVQQKPGKSPRGLIGGTNKRAPGVPARFSGSLLGGKAALTISGAQPEDEADYYCALWYSNHWVFGGGTKLTVLGGGGSDKTHTCPPCPAPEFEGGPSVFLFPPKPKDTLMISRTPEVTCVVVDVSHEDPEVKFNWYVDGVEVHNAKTKPREEQYNSTYRVVSVLTVLHQDWLNGKEYKCKVSNKALPASIEKTISKAKGQPREPQVYTLPPCREEMTKNQVSLWCLVKGFYPSDIAVEWESNGQPENNYKTTPPVLDSDGSFFLYSKLTVDKSRWQQGNVFSCSVMHEALHNHYTQKSLSLSPGK
heavy: EVQLVQSGAEVKKPGSSVKVSCKASGYTITDSNIHWVRQAPGQSLEWIGYIYPYNGGTDYNQKFKNRATLTVDNPTNTAYMELSSLRSEDTAFYYCVNGNPWLAYWGQGTLVTVSSASTKGPSVFPLAPSSKSTSGGTAALGCLVKDYFPEPVTVSWNSGALTSGVHTFPAVLQSSGLYSLSSVVTVPSSSLGTQTYICNVNHKPSNTKVDKRVEPKSCDKTHTCPPCPAPEFEGGPSVFLFPPKPKDTLMISRTPEVTCVVVDVSHEDPEVKFNWYVDGVEVHNAKTKPREEQYNSTYRVVSVLTVLHQDWLNGKEYKCKVSNKALPASIEKTISKAKGQPREPQVCTLPPSREEMTKNQVSLSCAVKGFYPSDIAVEWESNGQPENNYKTTPPVLDSDGSFFLVSKLTVDKSRWQQGNVFSCSVMHEALHNRFTQKSLSLSPGK
light: DIQLTQSPSTLSASVGDRVTITCRASESLDNYGIRFLTWFQQKPGKAPKLLMYAASNQGSGVPSRFSGSGSGTEFTLTISSLQPDDFATYYCQQTKEVPWSFGQGTKVEVKRTVAAPSVFIFPPSDEQLKSGTASVVCLLNNFYPREAKVQWKVDNALQSGNSQESVTEQDSKDSTYSLSSTLTLSKADYEKHKVYACEVTHQGLSSPVTKSFNRGEC
As to B2, in test [3], the “Cytokine Release Assay (TNFα) Donor 0 EC50” value was found to be 0.459 nM, the “Cytokine Release Assay (TNFα) Donor 0 gMFI max” value was found to be 231000 gMFI, the “Cytokine Release Assay (TNFα) Donor 1 EC50” value worked out at 13.1 nM and the “Cytokine Release Assay (TNFα) Donor 1 gMFI max” value is 113000 gMFI. Also, in test [3], the “Cytokine Release Assay (TNFα) Donor 2 EC50” value was 5.98 nM, the “Cytokine Release Assay (TNFα) Donor 2 gMFI max” value was determined as 125000 gMFI, the “Cytokine Release Assay (TNFα) Donor 3 EC50” value was found to be 0.212 nM and the “Cytokine Release Assay (TNFα) Donor 3 gMFI max” value was found to be 129000 gMFI. Also, in test [4], the “Cytokine Release Assay (IL2) Donor 0 EC50” value amounted to 0.456 nM, the “Cytokine Release Assay (IL2) Donor 0 gMFI max” value came to 377000 gMFI, the “Cytokine Release Assay (IL2) Donor 1 EC50” value is 1.64 nM and the “Cytokine Release Assay (IL2) Donor 1 gMFI max” value is 179000 gMFI. For the same molecule, in test [4], the “Cytokine Release Assay (IL2) Donor 2 EC50” value was 16.7 nM, the “Cytokine Release Assay (IL2) Donor 2 gMFI max” value was determined as 121000 gMFI, the “Cytokine Release Assay (IL2) Donor 3 EC50” value came to 0.172 nM and the “Cytokine Release Assay (IL2) Donor 3 gMFI max” value stood at 347000 gMFI.

B3: Low affinity Control (Control Humanized anti-CD3 (low affinity) scFv-Fc knob/TM x gemtuzumab) (bispecific antibody)
chain: EVQLVESGGGLVQPGGSLRLSCAASGFTFSTYAMNWVRQAPGKGLEWVGRIRSKYNNYATYYADSVKGRFTISRDDSKNTLYLQMNSLRAEDTAVYYCVRHGNFGDSYVSWFDYWGQGTLVTVSSGKPGSGKPGSGKPGSGKPGSQAVVTQEPSLTVSPGGTVTLTCGSSTGAVTTSNYANWVQQKPGKSPRGLIGGTNKRAPGVPARFSGSLLGGKAALTISGAQPEDEADYYCALWYSNHWVFGGGTKLTVLGGGGSDKTHTCPPCPAPEFEGGPSVFLFPPKPKDTLMISRTPEVTCVVVDVSHEDPEVKFNWYVDGVEVHNAKTKPREEQYNSTYRVVSVLTVLHQDWLNGKEYKCKVSNKALPASIEKTISKAKGQPREPQVYTLPPCREEMTKNQVSLWCLVKGFYPSDIAVEWESNGQPENNYKTTPPVLDSDGSFFLYSKLTVDKSRWQQGNVFSCSVMHEALHNHYTQKSLSLSPGK
heavy: EVQLVQSGAEVKKPGSSVKVSCKASGYTITDSNIHWVRQAPGQSLEWIGYIYPYNGGTDYNQKFKNRATLTVDNPTNTAYMELSSLRSEDTAFYYCVNGNPWLAYWGQGTLVTVSSASTKGPSVFPLAPSSKSTSGGTAALGCLVKDYFPEPVTVSWNSGALTSGVHTFPAVLQSSGLYSLSSVVTVPSSSLGTQTYICNVNHKPSNTKVDKRVEPKSCDKTHTCPPCPAPEFEGGPSVFLFPPKPKDTLMISRTPEVTCVVVDVSHEDPEVKFNWYVDGVEVHNAKTKPREEQYNSTYRVVSVLTVLHQDWLNGKEYKCKVSNKALPASIEKTISKAKGQPREPQVCTLPPSREEMTKNQVSLSCAVKGFYPSDIAVEWESNGQPENNYKTTPPVLDSDGSFFLVSKLTVDKSRWQQGNVFSCSVMHEALHNRFTQKSLSLSPGK
light: DIQLTQSPSTLSASVGDRVTITCRASESLDNYGIRFLTWFQQKPGKAPKLLMYAASNQGSGVPSRFSGSGSGTEFTLTISSLQPDDFATYYCQQTKEVPWSFGQGTKVEVKRTVAAPSVFIFPPSDEQLKSGTASVVCLLNNFYPREAKVQWKVDNALQSGNSQESVTEQDSKDSTYSLSSTLTLSKADYEKHKVYACEVTHQGLSSPVTKSFNRGEC
Turning to B3, in test [3], the “Cytokine Release Assay (TNFα) Donor 0 EC50” value stood at 0.549 nM, the “Cytokine Release Assay (TNFα) Donor 0 gMFI max” value is 222000 gMFI, the “Cytokine Release Assay (TNFα) Donor 1 gMFI max” value is 82800 gMFI and the “Cytokine Release Assay (TNFα) Donor 2 EC50” value stood at 24.6 nM. In test [3], the “Cytokine Release Assay (TNFα) Donor 2 gMFI max” value came out at 135000 gMFI, the “Cytokine Release Assay (TNFα) Donor 3 EC50” value turned out to be 40.7 nM and the “Cytokine Release Assay (TNFα) Donor 3 gMFI max” value was determined as 122000 gMFI. Moreover, in test [4], the “Cytokine Release Assay (IL2) Donor 0 EC50” value is 2.29 nM, the “Cytokine Release Assay (IL2) Donor 0 gMFI max” value turned out to be 24300 gMFI, the “Cytokine Release Assay (IL2) Donor 1 EC50” value turned out to be 10.8 nM and the “Cytokine Release Assay (IL2) Donor 1 gMFI max” value is 18500 gMFI. Further, in test [4], the “Cytokine Release Assay (IL2) Donor 2 gMFI max” value stood at 15700 gMFI, the “Cytokine Release Assay (IL2) Donor 3 EC50” value stood at 2.92 nM and the “Cytokine Release Assay (IL2) Donor 3 gMFI max” value was 21200 gMFI.

B4: Gemtuzumab (antibody, V domains shown)
VH: EVQLVQSGAEVKKPGSSVKVSCKASGYTITDSNIHWVRQAPGQSLEWIGYIYPYNGGTDYNQKFKNRATLTVDNPTNTAYMELSSLRSEDTAFYYCVNGNPWLAYWGQGTLVTVSS
VL: DIQLTQSPSTLSASVGDRVTITCRASESLDNYGIRFLTWFQQKPGKAPKLLMYAASNQGSGVPSRFSGSGSGTEFTLTISSLQPDDFATYYCQQTKEVPWSFGQGTKVEVKR
In the case of B4, in test [3], the “Cytokine Release Assay (TNFα) Donor 0 gMFI max” value was found to be 5310 gMFI, the “Cytokine Release Assay (TNFα) Donor 1 gMFI max” value came out at 4430 gMFI, the “Cytokine Release Assay (TNFα) Donor 2 gMFI max” value is 3680 gMFI and the “Cytokine Release Assay (TNFα) Donor 3 gMFI max” value was 3960 gMFI. In addition, in test [4], the “Cytokine Release Assay (IL2) Donor 0 EC50” value stood at 5.36 nM, the “Cytokine Release Assay (IL2) Donor 0 gMFI max” value stood at 12500 gMFI, the “Cytokine Release Assay (IL2) Donor 1 gMFI max” value is 12900 gMFI and the “Cytokine Release Assay (IL2) Donor 2 gMFI max” value is 10700 gMFI. In test [4], the “Cytokine Release Assay (IL2) Donor 3 gMFI max” value turned out to be 12200 gMFI.
